Here are results for six molecules from patent US20210388087A1 (Chugai, published 2021).

B1: CE115HA000 Y58S (antibody, human IgG1, kappa, L234A L235A, N297A, name in Kabat numbering)
heavy: QVQLVESGGGVVQPGRSLRLSCAASGFTFSNAWMHWVRQAPGKGLEWVAQIKAKSNNYATSYAESVKGRFTISRDDSKNSLYLQMNSLKTEDTAVYYCRYVHYGAYYGVDAWGQGTTVTVSSASTKGPSVFPLAPSSKSTSGGTAALGCLVKDYFPEPVTVSWNSGALTSGVHTFPAVLQSSGLYSLSSVVTVPSSSLGTQTYICNVNHKPSNTKVDKKVEPKSCDKTHTCPPCPAPEAAGGPSVFLFPPKPKDTLMISRTPEVTCVVVDVSHEDPEVKFNWYVDGVEVHNAKTKPREEQYASTYRVVSVLTVLHQDWLNGKEYKCKVSNKALPAPIEKTISKAKGQPREPQVYTLPPSRCELTKNQVSLSCAVKGFYPSDIAVEWESNGQPENNYKTTPPVLDSDGSFFLVSKLTVDKSRWQQGNVFSCSVMHEALHNHYTQKSLSLSPDYKDDDDK
chain: EPKSSDKTHTCPPCPAPELLGGPSVFLFPPKPKDTLMISRTPEVTCVVVDVSHEDPEVKFNWYVDGVEVHNAKTKPREEQYNSTYRVVSVLTVLHQDWLNGKEYKCKVSNKALPAPIEKTISKAKGQPREPQVCTLPPSRDELTKNQVSLWCLVKGFYPSDIAVEWESNGQPENNYKTTPPVLDSDGSFFLYSKLTVDKSRWQQGNVFSCSVMHEALHNRYTQKSLSLSP
light: DIVMTQSPLSLPVTPGEPASISCRSSQSLVHSNRNTYLHWYQQKPGQAPRLLIYKVSNRFSGVPDRFSGSGSGTDFTLKISRVEAEDVGVYYCGQGTQVPYTFGQGTKLEIKRTVAAPSVFIFPPSDEQLKSGTASVVCLLNNFYPREAKVQWKVDNALQSGNSQESVTEQDSKDSTYSLSSTLTLSKADYEKHKVYACEVTHQGLSSPVTKSFNRGEC
notes: one-arm antibody
B2: CE115HA000 Y59D (antibody, human IgG1, kappa, L234A L235A, N297A, name in Kabat numbering)
heavy: QVQLVESGGGVVQPGRSLRLSCAASGFTFSNAWMHWVRQAPGKGLEWVAQIKAKSNNYATYDAESVKGRFTISRDDSKNSLYLQMNSLKTEDTAVYYCRYVHYGAYYGVDAWGQGTTVTVSSASTKGPSVFPLAPSSKSTSGGTAALGCLVKDYFPEPVTVSWNSGALTSGVHTFPAVLQSSGLYSLSSVVTVPSSSLGTQTYICNVNHKPSNTKVDKKVEPKSCDKTHTCPPCPAPEAAGGPSVFLFPPKPKDTLMISRTPEVTCVVVDVSHEDPEVKFNWYVDGVEVHNAKTKPREEQYASTYRVVSVLTVLHQDWLNGKEYKCKVSNKALPAPIEKTISKAKGQPREPQVYTLPPSRCELTKNQVSLSCAVKGFYPSDIAVEWESNGQPENNYKTTPPVLDSDGSFFLVSKLTVDKSRWQQGNVFSCSVMHEALHNHYTQKSLSLSPDYKDDDDK
chain: EPKSSDKTHTCPPCPAPELLGGPSVFLFPPKPKDTLMISRTPEVTCVVVDVSHEDPEVKFNWYVDGVEVHNAKTKPREEQYNSTYRVVSVLTVLHQDWLNGKEYKCKVSNKALPAPIEKTISKAKGQPREPQVCTLPPSRDELTKNQVSLWCLVKGFYPSDIAVEWESNGQPENNYKTTPPVLDSDGSFFLYSKLTVDKSRWQQGNVFSCSVMHEALHNRYTQKSLSLSP
light: DIVMTQSPLSLPVTPGEPASISCRSSQSLVHSNRNTYLHWYQQKPGQAPRLLIYKVSNRFSGVPDRFSGSGSGTDFTLKISRVEAEDVGVYYCGQGTQVPYTFGQGTKLEIKRTVAAPSVFIFPPSDEQLKSGTASVVCLLNNFYPREAKVQWKVDNALQSGNSQESVTEQDSKDSTYSLSSTLTLSKADYEKHKVYACEVTHQGLSSPVTKSFNRGEC
notes: one-arm antibody
B3: CE115HA000 Y59E (antibody, human IgG1, kappa, L234A L235A, N297A, name in Kabat numbering)
heavy: QVQLVESGGGVVQPGRSLRLSCAASGFTFSNAWMHWVRQAPGKGLEWVAQIKAKSNNYATYEAESVKGRFTISRDDSKNSLYLQMNSLKTEDTAVYYCRYVHYGAYYGVDAWGQGTTVTVSSASTKGPSVFPLAPSSKSTSGGTAALGCLVKDYFPEPVTVSWNSGALTSGVHTFPAVLQSSGLYSLSSVVTVPSSSLGTQTYICNVNHKPSNTKVDKKVEPKSCDKTHTCPPCPAPEAAGGPSVFLFPPKPKDTLMISRTPEVTCVVVDVSHEDPEVKFNWYVDGVEVHNAKTKPREEQYASTYRVVSVLTVLHQDWLNGKEYKCKVSNKALPAPIEKTISKAKGQPREPQVYTLPPSRCELTKNQVSLSCAVKGFYPSDIAVEWESNGQPENNYKTTPPVLDSDGSFFLVSKLTVDKSRWQQGNVFSCSVMHEALHNHYTQKSLSLSPDYKDDDDK
chain: EPKSSDKTHTCPPCPAPELLGGPSVFLFPPKPKDTLMISRTPEVTCVVVDVSHEDPEVKFNWYVDGVEVHNAKTKPREEQYNSTYRVVSVLTVLHQDWLNGKEYKCKVSNKALPAPIEKTISKAKGQPREPQVCTLPPSRDELTKNQVSLWCLVKGFYPSDIAVEWESNGQPENNYKTTPPVLDSDGSFFLYSKLTVDKSRWQQGNVFSCSVMHEALHNRYTQKSLSLSP
light: DIVMTQSPLSLPVTPGEPASISCRSSQSLVHSNRNTYLHWYQQKPGQAPRLLIYKVSNRFSGVPDRFSGSGSGTDFTLKISRVEAEDVGVYYCGQGTQVPYTFGQGTKLEIKRTVAAPSVFIFPPSDEQLKSGTASVVCLLNNFYPREAKVQWKVDNALQSGNSQESVTEQDSKDSTYSLSSTLTLSKADYEKHKVYACEVTHQGLSSPVTKSFNRGEC
notes: one-arm antibody
B4: CE115HA000 Y97A (antibody, human IgG1, kappa, L234A L235A, N297A, name in Kabat numbering)
heavy: QVQLVESGGGVVQPGRSLRLSCAASGFTFSNAWMHWVRQAPGKGLEWVAQIKAKSNNYATYYAESVKGRFTISRDDSKNSLYLQMNSLKTEDTAVYYCRYVHAGAYYGVDAWGQGTTVTVSSASTKGPSVFPLAPSSKSTSGGTAALGCLVKDYFPEPVTVSWNSGALTSGVHTFPAVLQSSGLYSLSSVVTVPSSSLGTQTYICNVNHKPSNTKVDKKVEPKSCDKTHTCPPCPAPEAAGGPSVFLFPPKPKDTLMISRTPEVTCVVVDVSHEDPEVKFNWYVDGVEVHNAKTKPREEQYASTYRVVSVLTVLHQDWLNGKEYKCKVSNKALPAPIEKTISKAKGQPREPQVYTLPPSRCELTKNQVSLSCAVKGFYPSDIAVEWESNGQPENNYKTTPPVLDSDGSFFLVSKLTVDKSRWQQGNVFSCSVMHEALHNHYTQKSLSLSPDYKDDDDK
chain: EPKSSDKTHTCPPCPAPELLGGPSVFLFPPKPKDTLMISRTPEVTCVVVDVSHEDPEVKFNWYVDGVEVHNAKTKPREEQYNSTYRVVSVLTVLHQDWLNGKEYKCKVSNKALPAPIEKTISKAKGQPREPQVCTLPPSRDELTKNQVSLWCLVKGFYPSDIAVEWESNGQPENNYKTTPPVLDSDGSFFLYSKLTVDKSRWQQGNVFSCSVMHEALHNRYTQKSLSLSP
light: DIVMTQSPLSLPVTPGEPASISCRSSQSLVHSNRNTYLHWYQQKPGQAPRLLIYKVSNRFSGVPDRFSGSGSGTDFTLKISRVEAEDVGVYYCGQGTQVPYTFGQGTKLEIKRTVAAPSVFIFPPSDEQLKSGTASVVCLLNNFYPREAKVQWKVDNALQSGNSQESVTEQDSKDSTYSLSSTLTLSKADYEKHKVYACEVTHQGLSSPVTKSFNRGEC
notes: one-arm antibody
B5: CE115HA000 Y59A (antibody, human IgG1, kappa, L234A L235A, N297A, name in Kabat numbering)
heavy: QVQLVESGGGVVQPGRSLRLSCAASGFTFSNAWMHWVRQAPGKGLEWVAQIKAKSNNYATYAAESVKGRFTISRDDSKNSLYLQMNSLKTEDTAVYYCRYVHYGAYYGVDAWGQGTTVTVSSASTKGPSVFPLAPSSKSTSGGTAALGCLVKDYFPEPVTVSWNSGALTSGVHTFPAVLQSSGLYSLSSVVTVPSSSLGTQTYICNVNHKPSNTKVDKKVEPKSCDKTHTCPPCPAPEAAGGPSVFLFPPKPKDTLMISRTPEVTCVVVDVSHEDPEVKFNWYVDGVEVHNAKTKPREEQYASTYRVVSVLTVLHQDWLNGKEYKCKVSNKALPAPIEKTISKAKGQPREPQVYTLPPSRCELTKNQVSLSCAVKGFYPSDIAVEWESNGQPENNYKTTPPVLDSDGSFFLVSKLTVDKSRWQQGNVFSCSVMHEALHNHYTQKSLSLSPDYKDDDDK
chain: EPKSSDKTHTCPPCPAPELLGGPSVFLFPPKPKDTLMISRTPEVTCVVVDVSHEDPEVKFNWYVDGVEVHNAKTKPREEQYNSTYRVVSVLTVLHQDWLNGKEYKCKVSNKALPAPIEKTISKAKGQPREPQVCTLPPSRDELTKNQVSLWCLVKGFYPSDIAVEWESNGQPENNYKTTPPVLDSDGSFFLYSKLTVDKSRWQQGNVFSCSVMHEALHNRYTQKSLSLSP
light: DIVMTQSPLSLPVTPGEPASISCRSSQSLVHSNRNTYLHWYQQKPGQAPRLLIYKVSNRFSGVPDRFSGSGSGTDFTLKISRVEAEDVGVYYCGQGTQVPYTFGQGTKLEIKRTVAAPSVFIFPPSDEQLKSGTASVVCLLNNFYPREAKVQWKVDNALQSGNSQESVTEQDSKDSTYSLSSTLTLSKADYEKHKVYACEVTHQGLSSPVTKSFNRGEC
notes: one-arm antibody
B6: CE115HA000 Y59S (antibody, human IgG1, kappa, L234A L235A, N297A, name in Kabat numbering)
heavy: QVQLVESGGGVVQPGRSLRLSCAASGFTFSNAWMHWVRQAPGKGLEWVAQIKAKSNNYATYSAESVKGRFTISRDDSKNSLYLQMNSLKTEDTAVYYCRYVHYGAYYGVDAWGQGTTVTVSSASTKGPSVFPLAPSSKSTSGGTAALGCLVKDYFPEPVTVSWNSGALTSGVHTFPAVLQSSGLYSLSSVVTVPSSSLGTQTYICNVNHKPSNTKVDKKVEPKSCDKTHTCPPCPAPEAAGGPSVFLFPPKPKDTLMISRTPEVTCVVVDVSHEDPEVKFNWYVDGVEVHNAKTKPREEQYASTYRVVSVLTVLHQDWLNGKEYKCKVSNKALPAPIEKTISKAKGQPREPQVYTLPPSRCELTKNQVSLSCAVKGFYPSDIAVEWESNGQPENNYKTTPPVLDSDGSFFLVSKLTVDKSRWQQGNVFSCSVMHEALHNHYTQKSLSLSPDYKDDDDK
chain: EPKSSDKTHTCPPCPAPELLGGPSVFLFPPKPKDTLMISRTPEVTCVVVDVSHEDPEVKFNWYVDGVEVHNAKTKPREEQYNSTYRVVSVLTVLHQDWLNGKEYKCKVSNKALPAPIEKTISKAKGQPREPQVCTLPPSRDELTKNQVSLWCLVKGFYPSDIAVEWESNGQPENNYKTTPPVLDSDGSFFLYSKLTVDKSRWQQGNVFSCSVMHEALHNRYTQKSLSLSP
light: DIVMTQSPLSLPVTPGEPASISCRSSQSLVHSNRNTYLHWYQQKPGQAPRLLIYKVSNRFSGVPDRFSGSGSGTDFTLKISRVEAEDVGVYYCGQGTQVPYTFGQGTKLEIKRTVAAPSVFIFPPSDEQLKSGTASVVCLLNNFYPREAKVQWKVDNALQSGNSQESVTEQDSKDSTYSLSSTLTLSKADYEKHKVYACEVTHQGLSSPVTKSFNRGEC
notes: one-arm antibody

The target in the test is T1, CD3 epsilon homodimer protein (UniProt P07766 23-126).
T1 construct: also called CD3 (CD3 epsilon)
T1 sequence (P07766 23-126): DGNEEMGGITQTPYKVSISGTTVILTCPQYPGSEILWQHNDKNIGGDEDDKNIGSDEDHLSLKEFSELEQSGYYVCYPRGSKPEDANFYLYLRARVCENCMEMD
Nature of the test: SPR, CD3 epsilon homodimer on chip, one-arm antibody as analyte.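 Further: surface plasmon resonance at 25 °C with CD3 epsilon homodimer amine-coupled to a CM4 sensor chip, antibody injected as analyte, HBS-EP+ as running buffer.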 A general note: In SPR one partner is held on a chip, and binding of the other changes the refractive index at the surface.
Method: An appropriate amount of CD3 epsilon homodimer protein was immobilized onto Sensor chip CM4 (GE Healthcare Japan Corp.) by the amine coupling method. Then, the antibody having an appropriate concentration was injected thereto as an analyte and allowed to interact with the CD3 epsilon homodimer protein on the sensor chip. Then, the sensor chip was regenerated by the injection of 10 mmol/L glycine-HCl (pH 1.5). The assay was conducted at 25 degrees C., and HBS-EP+(GE Healthcare Japan Corp.) was used as a running buffer. […] Each parameter was calculated using Biacore T200 Evaluation Software (GE Healthcare Japan Corp.).
For the molecule B1, the “KD ratio (KD of CE115HA000/KD of altered form)” value (from here on “KD ratio”) stood at 1.22.

In the case of B2, the “KD ratio” value amounted to 0.66.

With B3, the “KD ratio” value worked out at 0.61.

B4: the “KD ratio” value was found to be 41300.

For B5, the “KD ratio” value was determined as 0.74.

For the molecule B6, the “KD ratio” value came to 0.79.
